Source: PMC8864165 (2022)
Square brackets hold non-standard residues; d marks the D form. Ends that are not written are not given here. Ac6c = NC1(C(=O)O)CCCCC1

Experiments:
[1] = biological target: E. coli DnaK (Escherichia coli, UniProt P0A6Y8 1-638); test: FP
[2] = biological target: S. aureus DnaK (Staphylococcus aureus, UniProt P99110 1-610); test: FP

B1: ARV-1502 (peptide)
peptide: [Ac6c]RPDKPRPYLPRPRPPRPVR-NH2
modifications: N-terminus assumed
SMILES: CC(C)C[C@H](NC(=O)[C@H](Cc1ccc(O)cc1)NC(=O)[C@@H]1CCCN1C(=O)[C@H](CCCNC(=N)N)NC(=O)[C@@H]1CCCN1C(=O)[C@H](CCCCN)NC(=O)[C@H](CC(=O)O)NC(=O)[C@@H]1CCCN1C(=O)[C@H](CCCNC(=N)N)NC(=O)C1(N)CCCCC1)C(=O)N1CCC[C@H]1C(=O)N[C@@H](CCCNC(=N)N)C(=O)N1CCC[C@H]1C(=O)N[C@@H](CCCNC(=N)N)C(=O)N1CCC[C@H]1C(=O)N1CCC[C@H]1C(=O)N[C@@H](CCCNC(=N)N)C(=O)N1CCC[C@H]1C(=O)N[C@H](C(=O)N[C@@H](CCCNC(=N)N)C(N)=O)C(C)C
B1 was tested, and the Ki [1] was 400 nM and the Ki [2] was 13700 nM.

B2: peptide 102 (peptide)
peptide: [Ac6c]RPFFPRPYLPLPRPPRPVR-NH2
modifications: N-terminus assumed
SMILES: CC(C)C[C@H](NC(=O)[C@H](Cc1ccc(O)cc1)NC(=O)[C@@H]1CCCN1C(=O)[C@H](CCCNC(=N)N)NC(=O)[C@@H]1CCCN1C(=O)[C@H](Cc1ccccc1)NC(=O)[C@H](Cc1ccccc1)NC(=O)[C@@H]1CCCN1C(=O)[C@H](CCCNC(=N)N)NC(=O)C1(N)CCCCC1)C(=O)N1CCC[C@H]1C(=O)N[C@@H](CC(C)C)C(=O)N1CCC[C@H]1C(=O)N[C@@H](CCCNC(=N)N)C(=O)N1CCC[C@H]1C(=O)N1CCC[C@H]1C(=O)N[C@@H](CCCNC(=N)N)C(=O)N1CCC[C@H]1C(=O)N[C@H](C(=O)N[C@@H](CCCNC(=N)N)C(N)=O)C(C)C
Work on B2 yielded a Ki [1] of 310 nM and a Ki [2] of 4200 nM.

B3: peptide #2 (peptide)
chain: [Ac6c]RPKKPRPYLPRPRPPRPVR-NH2
modifications: N-terminus assumed
SMILES: CC(C)C[C@H](NC(=O)[C@H](Cc1ccc(O)cc1)NC(=O)[C@@H]1CCCN1C(=O)[C@H](CCCNC(=N)N)NC(=O)[C@@H]1CCCN1C(=O)[C@H](CCCCN)NC(=O)[C@H](CCCCN)NC(=O)[C@@H]1CCCN1C(=O)[C@H](CCCNC(=N)N)NC(=O)C1(N)CCCCC1)C(=O)N1CCC[C@H]1C(=O)N[C@@H](CCCNC(=N)N)C(=O)N1CCC[C@H]1C(=O)N[C@@H](CCCNC(=N)N)C(=O)N1CCC[C@H]1C(=O)N1CCC[C@H]1C(=O)N[C@@H](CCCNC(=N)N)C(=O)N1CCC[C@H]1C(=O)N[C@H](C(=O)N[C@@H](CCCNC(=N)N)C(N)=O)C(C)C
Work on B3 yielded a Ki [1] of 600 nM.
